The target in the assay is His-NDR1^3E (human) (UniProt Q15208).
Sequence of His-NDR1^3E (human) (Q15208 other isoform, or with tags, fused parts or gaps): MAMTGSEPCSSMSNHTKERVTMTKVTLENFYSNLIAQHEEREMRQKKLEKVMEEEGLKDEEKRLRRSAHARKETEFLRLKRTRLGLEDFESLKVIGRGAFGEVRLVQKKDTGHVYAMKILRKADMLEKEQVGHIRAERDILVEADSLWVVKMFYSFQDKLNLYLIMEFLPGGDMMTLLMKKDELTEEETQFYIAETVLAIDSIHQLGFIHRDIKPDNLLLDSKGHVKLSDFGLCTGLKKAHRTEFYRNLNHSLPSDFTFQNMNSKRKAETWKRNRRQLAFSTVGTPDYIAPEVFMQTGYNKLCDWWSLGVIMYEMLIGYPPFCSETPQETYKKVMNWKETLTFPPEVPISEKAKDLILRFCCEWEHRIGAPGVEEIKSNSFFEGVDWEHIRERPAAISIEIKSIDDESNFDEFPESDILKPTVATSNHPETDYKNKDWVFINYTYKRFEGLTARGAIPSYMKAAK

KKRNRRLSVA [10-mer NDR1 substrate peptide]: the Km toward the 10-mer substrate peptide SP in a fluorimetric kinase assay, relative to wild type NDR1 amounted to 1.7 fold.
